Measurements: publication PMC12340910, “Structural basis for transport and inhibition of nucleotide sugar transport in pathogenic fungi” (Research Square, 2025)

Legend:
[1] = molecular target: T1, CaVrg4; C. albicans Vrg4; GDP-mannose transporter Vrg4 (Candida albicans, UniProt Q5A477); assay: cryo-EM structure, […] Å; assay type: binding; conditions: complex with nanobody NB4, cytoplasmic-facing state; endogenous co-purified ligand; density suboptimal for precise ligand modelling
T1 construct: first 33 residues excluded; expressed in S. cerevisiae BJ5460 from pDDGFP-Leu2D; His-tagged GFP fusion cut by TEV; DDM/DM purified, reconstituted into liposomes; ~37 kDa
T1 sequence (Q5A477 34-371): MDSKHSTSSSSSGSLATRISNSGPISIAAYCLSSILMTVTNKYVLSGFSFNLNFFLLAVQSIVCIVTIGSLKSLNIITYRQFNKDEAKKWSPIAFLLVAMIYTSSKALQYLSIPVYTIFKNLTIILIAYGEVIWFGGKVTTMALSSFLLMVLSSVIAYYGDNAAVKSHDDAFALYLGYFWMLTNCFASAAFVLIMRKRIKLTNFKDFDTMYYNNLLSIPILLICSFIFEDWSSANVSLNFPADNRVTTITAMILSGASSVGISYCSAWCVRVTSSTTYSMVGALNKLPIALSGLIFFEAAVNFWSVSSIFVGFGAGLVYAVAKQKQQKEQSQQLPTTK

[2] = molecular target: T2, Candida albicans Vrg4, Avi-tagged (C terminus), biotinylated (Candida albicans (UniProt Q5A477, …, UniProt Q5A477)); assay: ELISA; dilution series of each nanobody captured by its Myc tag on MaxiSorp plates with protein A and anti-c-Myc antibody; 50 nM biotinylated CaVrg4 added for 40 minutes; streptavidin-peroxidase polymer, TMB, absorbance at 650 nm; KD from the 'one site - total binding' equation; conditions: both partners purified
T2 construct: also called biotinylated CaVrg4; purified CaVrg4; source: S. cerevisiae BJ5460, purified as the untagged version, biotinylated using BirA ligase; not shown: Avi tag, C-terminal, kept

In the case of `Nc1nc2c(ncn2[C@@H]2O[C@H](COP(=O)(O)OP(=O)(O)O[C@H]3O[C@H](CO)[C@@H](O)[C@H](O)[C@@H]3O)[C@@H](O)[C@H]2O)c(=O)[nH]1` [GDP-mannose], the “cryo-EM structure, 3.4 Å” value [1] is reported as “in the maps obtained for the NB4-bound structure, we observed density consistent with the endogenous ligand”.

B1: Nanobody NB3 (VHH)
VHH: QVQLVESGGGLVQPGGSLRLSCAASGSISEINVMGWYRQAPGKQRELVARITTGGSTNYADSVKGRFTISRDNAKNTVYLQMNSLKPEDTAVYMCNAHRRVVMEWGPLGYDYWGQGTQVTVSS
notes: source: subcloned into the pSBinit vector and purified; not shown: Myc, C-terminal, kept; His, C-terminal, kept
B1 was tested, and the Kd [2] was roughly 3 nM.

B2: Nanobody NB4 (VHH)
VHH: QVQLVESGGGLVQAGGSLRLSCAASGRTFRSYTLGWFRQAPGKEREFVAAIKWSTDTTYYADSVKGRFTISGDNAKNTVYLQMNSLKPEDTAVYFCAARSLSTVIAGPEIPWPYNSWGQGTQVTVSS
notes: as for B1
In the case of B2, the Kd [2] is reported as roughly 10 nM.
